Measured values from patent US20040062769A1 (US Dept. of Health and Human Services, published 2004).

Target: T1, FCR3.varCSA protein (Plasmodium falciparum (FCR3 strain), surface iodinated (125I) in the thrombomodulin bead capture)
T1 construct: also called FCR3-CSA var
Assay: cytoadhesion of FCR3-CSA PRBCs to CHO-745 cells expressing CD36 (Table 1)

B1: human CD36 expressed on CHO-745 cells (receptor)
chain: GCDRNCGLIAGAVIGAVLAVFGGILMPVGDLLIQKTIKKQVVLEEGTIAFKNWVKTGTEVYRQFWIFDVQNPQEVMMNSSNIQVKQRGPYTYRVRFLAKENVTQDAEDNTVSFLQPNGAIFEPSLSVGTEADNFTVLNLAVAAASHIYQNQFVQMILNSLINKSKSSMFQVRTLRELLWGYRDPFLSLVPYPVTTTVGLFYPYNNTADGVYKVFNGKDNISKVAIIDTYKGKRNLSYWESHCDMINGTDAASFPPFVEKSQVLQFFSSDICRSIYAVFESDVNLKGIPVYRFVLPSKAFASPVENPDNYCFCTEKIISKNCTSYGVLDISKCKEGRPVYISLPHFLYASPDVSEPIDGLNPNEEEHRTYLDIEPITGFTLQFAKRLQVNLLVKPSEKIQVLKNLKRNYIVPILWLNETGTIGDEKANMFRSQVTGKINLLGLIEMILLSVGVVMFVAFMISYCACRSKTIK
notes: whole, on cells; also called CHO^CD36
- binding result: no binding
